Measured values as given in the DeepSol protein solubility set.

Assay: soluble on expression in E. coli; label from the status in PepcDB or PDB records

| Sequence | soluble on expression in E. coli |
| --- | --- |
| MGSDKIHHHHHHMAIACVMTRASCGVQAPKVIVEVHLSNGLPGFSLVGLPEASVKEAKERVRSALINAGFEFPMQRITVNLAPADLPKQGGRYDLPIAIGILAASEQIPKKAIADAEFVGELALTGQVRPCVGLLPAIIAARDDGHPMFMPLDNRHEAELVGYQQCHFVADLQHLAAFIHGQGQLPKVDNQTQWITESAVDPKLCLSDVIGQYQAKQGLEIAAAGGHNLLLMGPPGTGKSMLASRIIPLLPNLSYQEAIEVAAIHSVAGLNTPSHNFLQRPFRSPHHTCSAISLVGGGSVPKPGEISLAHRGILFLDELPEFPRRVLDCLREPMETGEVVISRAAAKLTFASRFQLIAAMNPSPCGNVDKARSTPDQIQRYLSRLSGPFLDRFDLTVDVPKLPSGALSQANIQAETSISVAARVRKAREKQLERSGVLNNELSPKALKKVANLDQANLIFLEQSVQLLGLSVRSFHKIQRVACTIADLQEEAKVDRAHLAQALGYRAMDRLIARLRQQ | not soluble |
| MGSDKIHHHHHHMAIIETRGIWLTTTDSKVLRSKQRIAEAMDLLAETGFNVVFPVVWNKAVTLYPSQTMQETFGVEIDPMSVGRDPLEEVVVEARRVGLKVIPWFEYGFASSYNLNGGVLLQKKPEWAARDFNGNLLNKNGFEWLNALDSQVQEFFLNLVLEVVKNYDVDGVQGDDRLPAFPCEGGYDEGTVSRYRQEYDRNPPQNPKDRQWLQWRADILTDFLARLYGEVKAVNPNLLVAIAPNIHDWAFQEYLQDSPTWLKRGIVDMIQPQIYRRDFGSYCAIADKLVSQQFTDATLPRLAPGILMKLGSYCISPEYLVQAIEYNRQLGIQGEVFFFYEGLRENNNTLAKVLRNGPYAKSASFPTLSDLSVSGVSNKKTSSTWQRLLKKIF | not soluble |
| MGSDKIHHHHHHMAILNISELEQVEKFRQLQLTLRDRWKTIESFDNSEADILIIPSLSIDQRELQKIEGCEHYEERLLFSLIRLQNPRTRLIYVTSVPLHPSIIDYYLQLLPGIPFSHARNRLLLLSTYDSSLKPLSQKILERPRLLERIHQSLRLDKSFMICYNSSHWEGELSLKLGVPLYAAAPDLQIWGTKSGSRQIFKGSGVPHPDGSEKIWNHTDLAEATSDLWERQPTLKRVVVKLNEGISGEGNALLDLRPIENLAPGIGTHAQRVAAISDRFSTMRFQAKLETWDNFSGRIPELGAIAEAFVEGEIKRSPSVQGRITPTGEVEILSTHDQILGGPDGQIYLGCRFPADESYRLQLQQLGLQVGRTLAEKGTLERFGVDFIAVDKGNGEWDIQAIEINLRKGGTTHPFMTLKLLTNGRYDLSTGLFYSQQGRPKYYIATDNLQKERYQGLLPNDLMDIIAHHRLHFDSGTETGTVFHLMGCLSQFGKLGLTSIGDSPQQAQDIYNKVVKVLDEETRSENRDFSAFSDYSFPVAWDEYR | not soluble |
| MGSDKIHHHHHHMAIRSSVLALCVATLLTGCQNLNTNTLMQSGAQAFQAATLSDAQVKALSDQSCEQMDKEAKIAPADSKYTQRLNKIADALGHDINGTPANYKVYLEKDVNAWAMANGCIRVYSGLMDMMNDNEVEGVLGHEMGHVALGHTRKAMQVAYAATAARTAIASAGGVAASLSQSQLADLGEKLVNSQFSQSQESQADDYSFDLLKKRGINREGLASSFEKLAKLDASHESSMFDSHPSSEGRAKHIRERITAEK | not soluble |
| MGSDKIHHHHHHMAIRTCFCTGVLPVTMDDLTSGYNIAEILTLEPEFLSMLGFTYKEAEVYLRYVLDTYTEGQDRFDDVWQLIVNNYDGYRFLPEAEPLFNSTILTYFFKKFAVRKGGIPSELVDENLRTDIGWIRHLTLSLENAKEMQDALVIDDELSYNVSDLSSKFNKRKFFDKSIYPVSLFYLGMTTLRSNYRMVLPNLTMRSIYMDYYNEMNHIEGNAQRYVPTYERFTEERRFEPLVQNYFEQYLGQFPAQVFDKINENFIRCSFFELCSRYLSSCYTFAIEQNNSAGRSDFEMTGIPGTDYYKDDRLAEFKYFKAKEAERMLALSDPRPEDVAQVLAYAKDTKVKFPHYHVRSYIVYICANKGWKCWEVTP | not soluble |
| MGSDKIHHHHHHMAKDIEISASESKFILEALRQNYRLDGRSFDQFRDVEITFGKEFGDVSVKMGNTKVHCRISCQIAQPYEDRPFEGLFVISTEISPMAGSQFENGNITGEDEVLCSRIIEKSVRRSGALDVEGLCIVAGSKCWAVRADVHFLDCDGGFIDASCIAVMAGLMHFKKPDITVHGEQIIVHPVNEREPVPLGILHIPICVTFSFFNPQDTEENIKGETNSEISIIDATLKEELLRDGVLTVTLNKNREVVQVSKAGGLPMDALTLMKCCHEAYSIIEKITDQILQLLKEDSEKRNKYAAMLTSENAREI | not soluble |
| MGSDKIHHHHHHMAKILVVTDGAYGYRIKGTINSFGKKNKFIGIYKINKPDDLIVDDIEFPDELLEKIKEADILLLYTQHPDNTYYLCYEARRLNKDIAIIVATWSGEGEKKELKKFDAICPEEMCLLDENEVGSLIDKYPKLKEFLEEFGTPKVKVYVKDNKVIDVEVLRTSICGSTLFMAKLMKGMEVNDIEEFAKKSAMLIQRYPCVAGKIKIFRGDCRKQKALNIHKEAVLEGIIFI | not soluble |
| MGSDKIHHHHHHMAKINLIIAETDGAYLKGLVNYISSNFEDTFRITCFTNREYLEKYISSGRISDILLIKTDMFYEGLMKNSIKSIAILSEGGNMDEFNGLPVVKKYQPGEKLCREILNIYYNNNPEVAPCKEVKKQEGSIITLYSPVGGIGKSTIAIEMAKKLSDSNKKVLYLNLEDLQSTLVFFECSTSKNMSDFLYFIKERDENFKEVLKDIVLKDEESGINYFAPVDSVLDIEDLKVDDVKFMLQKLIEVNMYNYIIIDLSSTFNINYKTIFEMSSKIIVPIGQDKLSSVKLQNFLKQLDNLENFSFIQNKYKDNLETIIPHVLLREKKPIIQKIYYDEALESVSSLIYLKNRASTFLRCIDELIMKLL | not soluble |
| MGSDKIHHHHHHMAKLYFNYSTMNAGKSTVLLQASHNYRERGMQTYLMTAAIDGRAGTGRIASRIGIGAEADIFTPRDDVFAMIRDRLGAGPVACVFVDEAQFLSPEQVWQLARVVDDLDVPVLAYGLRVDFQGKLFPGSATLLALADEMREVRTICKCGRKATMVIRQDASGRAITEGAQVQIGGNETYVSLCRKHWREATGDPGAKGH | not soluble |
| MGSDKIHHHHHHMAKLYFYYSTMNAGKSTTLLQSDYNYRERNMNTLVYTAAIDDRFGKGKVSSRIGIHRQANLFHKDTDLFTEIALHIKQQKLHCILIDEAQFLTKAQVYQLSNVVDELNIPVLCYGLRTDFQAELFEGSKYLLAWADQLEELKTICYCGRKANFVLRLNEQGKAVKDGEQIQIGGNDSYMSVCRKHYKEILYSSNE | not soluble |
| MGSDKIHHHHHHMAKNKALFECQACGNQQSKWLGKCPDCGAWDSFVELKAEQIKVLKELAQVSMKTSEAVCIEDVELEHFTRYSTDDNELDLVLGGGLVEGSLVLIGGSPGVGKSTLLLKIASNLAKQGKKVLYVSGEESKAQIKLRADRLEANTPNLFLLTELCLENILEELHKKDYSILIVDSIQTLYSNKITSAAGSITQVREITFELMRVSKAYNISTFIIGHITKEGAIAGPRVLEHMVDVVLYFEGDATKEIRLLRGFKNRFGGTNEVGIFEMTAKGLISAKDLANRFFTRGKAISGSALGVVMEGSRALVLEVQALVCESSYPKRSATGYEKNRLDMLLALLERKLEIPLGHYDVFVNISGGVKVSETAADLAVVAAIISSFKNRPLSKDSIFIGELSLNGEIREVFSLDTRLKEAKMQKFKNAIVPSKPLEDIGLKCFVAKELSQVLEWM | not soluble |
| MGSDKIHHHHHHMAKNKQEDIFDAAMQLFAERGYDGTTIPMIAEKAKVGAGTIYRYFENKEALVNSLFSKSMLQLSEMIKTDFPVEANIREQFSHTYNRLFEFARNNVDAFLFTNSHCDSYFLDEQSKKIFDDFIGFFMNIIEDGIVKGLLRPLPPVALIIIVYQPLEKLIKVIATGQLEYSKELVKELEESSWNAIRII | not soluble |
| MGSDKIHHHHHHMAKSKIDELMSVGIDIGKDTFHVVAFDPDGHLVMRKRIKRLALVATFEKLPRCVVGMEACLSAHFVSRTLRKMGFEPGIIPAIYVKPFIKGQKNDYNYAEAISEAALRPNLPVVPEKSQEQLDLQALHRVRSRLVSRRTASINQIRAFLIEQGITVRKGLRVLKNSFGKILDERKDEISPRMRTILIGLYGDWLWLDDRIDTVSKEIEQISRTEENCINVMTVPGIGPMISTAMVAAIGTGEAFGRGRDFAAWVGLVPRQYSTGGRTILGRITKRGSRYLRMLFVQAAKVILMRTNRWPDFSFGDWLIKAAERMNRNKLAVALANKLARMA | not soluble |
| MGSDKIHHHHHHMAKYRIMTFDGGGTLGALSLQLLNRLARQNPKLISRTHVFSGNSIGSFTALALASGRSPRETLQYFEDEILPAFSISRPGGPVFNQQLPYSGFIKAVRNFFPADLQLIDLRKRIVVPSFKLYSQKLDRWTPVLFHNFPGSPYLNEKVSDVILRSSGAPATQRAYQNYVDGYVVATNPSTASIAFAVGKANVPLDQIAVLSIGTGEAPTRLRRDTRGWGMVSADNIRPENLKNLPPNWGVLLDRSPNEPLLPFLQMIAGGNGYYESMVSANLLGDRFFRLDPRIPNFSKTDPAVVPAVIEIANKTNLQPANQFIEKNWGSK | not soluble |
| MGSDKIHHHHHHMALDGYTDQTMSRQAMRAELLDAETELRLAYAWRDQRDERALHRLITAYMRLAISMASKYRRYGAPMNDLIQEASLGLMKAADKFDPDRGVRFSTYAVWWIKASIQDYVMRNWSLVRTGSTSSQKALFFNMRRVQARLEREASQRGEALDAHQLREMVAHDVGVPLSDVEMMEGRLSGSDFSLNATQSADDEGREWIDALEDDSAQAAEVVEGSLDAARLRGWLVSAMQQLNARERFIVTERKLRDVPRTLESLGEELKLSKERVRQLEAAAFAKMRRSLEAQSREVHHFLL | not soluble |
| MGSDKIHHHHHHMALIRINFMAASLHRTVPLMVCLPTDKLVPDEQGVPRPIQGPFATLYLLHGILGSEVDWISGTRIQRWADERNLAVVMPAGENSFYTDHPWSGETYSQFIGQELIDFTRRTFPLSHQRDQTFIGGLSMGGYGALYNGLKFHDIFGAIVSLSAGLNVRPGMEKLPAKPQWFAETAAYQHGVFGPDLAAAGHSELNPQVLVTKLLAAHVALPAIFMAIGDQDGLKPANDEFDHFLTAKKVSHEYVVGSGAHEWDFWDRYLLKALNWLPLTNQGAGVNSGHIKAN | not soluble |
| MGSDKIHHHHHHMALKDIISQVYRRLFNVIATVCPVRKHVVLFEAFNGKVPMDNPLYVYEALQTAHPDWKLVWSVKRQLVVEAQEKYPKLNIIPRFSAKWLLVAPVAEFWVLNARMPYWLKKNAKTTYIQTWHGTPLKRLGIDIPKVSMPGTDTSQYRQNFTAESKRWDYLIAPNQFSKDVFRRAFDFNNQFLDYGYPRNDRLVHQRQDYDAIAAIKKRIVGNKMGKVILYAPTWRDDFFIRKGMYKMNLPFSLAAVVKRLNKEDVLIIRPHYLVAESINIQGFEDNVKLCVDEDINDLYLISDLLITDYSSVMFDYAILNRPMLFYPYDLAHYQGDVRGFYFDYNKVPGPIVTNEQDFLAKLDQFLTNDGYPNETAKMMAFRTQFTEWEQGTASQRVVKLITSIDQNANNYTG | not soluble |
